Source: paper PMC8262862
pKd: −log10 of the molar value.

Assays:
Experiment in all cases: ELISA
[1] = molecular target: B-Phuket HA
[2] = molecular target: H10 HA
[3] = molecular target: H9 HA
[4] = molecular target: H8 HA
[5] = molecular target: H2 HA
[6] = molecular target: H6 HA
[7] = molecular target: H3 HA
[8] = molecular target: H5 HA
[9] = molecular target: H1 HA
[10] = molecular target: H14 HA
[11] = molecular target: H7 HA
[12] = molecular target: H13 HA

Row | Substance | pKd [1] | pKd [2] | pKd [3] | pKd [4] | pKd [5] | pKd [6] | pKd [7] | pKd [8] | pKd [9] | pKd [10] | pKd [11] | pKd [12]
1 | CR8033 | 9.96 | – | – | – | – | – | – | – | – | – | – | –
2 | FI6v3 | < 7.00 | 8.05 | 9.32 | 9.62 | 9.52 | 9.33 | 9.64 | 9.60 | 9.54 | 9.42 | 9.47 | 8.82
